Measured values as given in patent US20210120790A1.

Key:
[1] = target: Endogenous mouse SIRPα of wildtype BALB/c mice (mouse (BALB/c)) (UniProt P97797); test: flow cytometry; CD47 protein on peritoneal cavity cells of wildtype BALB/c mice, detected with human anti-CD47 antibody and AF647 anti-hIgG
[2] = target: Endogenous mouse SIRPα of wildtype C57BL/6 mice (mouse (C57BL/6)) (UniProt P97797); test: flow cytometry; CD47 protein on peritoneal cavity cells of wildtype C57BL/6 mice, detected with human anti-CD47 antibody and AF647 anti-hIgG

Chain of UniProt P97797 (P97797 32-513): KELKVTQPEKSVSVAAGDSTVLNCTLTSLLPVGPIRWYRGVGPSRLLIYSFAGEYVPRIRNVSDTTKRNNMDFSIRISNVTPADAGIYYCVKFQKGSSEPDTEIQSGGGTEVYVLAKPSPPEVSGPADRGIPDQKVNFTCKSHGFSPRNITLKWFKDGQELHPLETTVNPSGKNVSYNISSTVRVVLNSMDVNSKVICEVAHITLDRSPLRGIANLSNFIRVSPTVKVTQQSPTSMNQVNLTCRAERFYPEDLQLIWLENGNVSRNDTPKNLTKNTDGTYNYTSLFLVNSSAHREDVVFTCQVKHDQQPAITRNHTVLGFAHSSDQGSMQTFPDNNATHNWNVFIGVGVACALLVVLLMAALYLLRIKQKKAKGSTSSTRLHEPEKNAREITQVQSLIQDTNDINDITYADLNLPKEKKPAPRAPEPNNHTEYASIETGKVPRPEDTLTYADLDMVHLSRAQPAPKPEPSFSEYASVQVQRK

geometric mean of flow cytometry signal [1]: 100 | geometric mean of flow cytometry signal [2]: 100
Substance: Mouse CD47 proteins (added to peritoneal cavity cells, Example 16) (ligand)
